Results reported in PMC4460818, “Regulation of NDR1 activity by PLK1 ensures proper spindle orientation in mitosis” (Scientific Reports, 2015).

B1: GST-Mob1A (natural protein, human (cDNA from HeLa), UniProt Q9H8S9 1-216, looked up)
chain: MSFLFSSRSSKTFKPKKNIPEGSHQYELLKHAEATLGSGNLRQAVMLPEGEDLNEWIAVNTVDFFNQINMLYGTITEFCTEASCPVMSAGPRYEYHWADGTNIKKPIKCSAPKYIDYLMTWVQDQLDDETLFPSKIGVPFPKNFMSVAKTILKRLFRVYAHIYHQHFDSVMQLQEEAHLNTSFKHFIFFVQEFNLIDRRELAPLQELIEKLGSKDR
notes: Mob1A; cDNA isolated by PCR from a HeLa cDNA library, cloned into pGEX-6P-1; Vector pGEX-6P-1, BamHI and SalI; also called recombinant Mob1A; source: E. coli, purified by glutathione-agarose beads
B2: MBP-NDR1^3A (enzyme)
chain: not shown
notes: NDR1 kinase, human, full length, Thr7, Thr183 and Thr407 mutated to alanines; Mutants were made on the siRNA-resistant (silent changes) NDR1 plasmid; source: E. coli, purified dissolved MBP-tagged protein
B3: MBP-NDR1^3E (enzyme)
chain: not shown
notes: NDR1 kinase, human, full length, phospho-mimicking mutant of the PLK1 sites Thr7, Thr183 and Thr407 (3E); glutamate is read from that name; Mutants were made on the siRNA-resistant NDR1 plasmid; also called phosphomimetic mutant NDR1^3E; source: E. coli, purified dissolved MBP-tagged protein

How the values were obtained:
MBP-NDR1 wild type = biological target: T1, MBP-NDR1 wild type (human, UniProt Q15208 1-465); assay: pull-down; GST or GST-fusion protein on agarose beads incubated with purified dissolved MBP-tagged proteins in PBS, 0.1% Triton X-100, 0.5 mM DTT, 4 °C, 3-8 hours; SDS-PAGE, CBB stain; bands quantified by ImageJ for the Mob1A pull-down; conditions: both partners purified
T1 construct: NDR1 kinase, human, full length; cDNA isolated by PCR from a HeLa cDNA library; Vector pMAL-C2x; also called MBP-tagged NDR1; NDR1^WT; source: E. coli, purified by amylose beads, eluted by 10 mM maltose (told for MBP and the MBP-NDR1 mutants)

GST-Mob1A = biological target: B1; assay: as above; conditions: both partners purified

T1 sequence (Q15208 whole entry, the tested form may be a part): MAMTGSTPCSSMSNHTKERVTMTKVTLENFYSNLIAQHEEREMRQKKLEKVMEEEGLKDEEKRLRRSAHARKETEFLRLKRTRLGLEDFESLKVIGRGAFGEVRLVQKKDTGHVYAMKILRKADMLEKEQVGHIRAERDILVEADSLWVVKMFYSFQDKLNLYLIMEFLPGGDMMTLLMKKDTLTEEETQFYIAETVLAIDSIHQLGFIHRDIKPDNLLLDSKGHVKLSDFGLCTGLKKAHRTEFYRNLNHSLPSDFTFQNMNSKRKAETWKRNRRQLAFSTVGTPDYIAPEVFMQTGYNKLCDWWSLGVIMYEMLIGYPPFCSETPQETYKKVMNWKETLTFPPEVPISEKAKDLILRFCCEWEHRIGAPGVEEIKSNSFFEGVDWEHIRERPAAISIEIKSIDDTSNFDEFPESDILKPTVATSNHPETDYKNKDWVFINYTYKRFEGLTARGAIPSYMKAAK

Binder: B1
binding result (MBP-NDR1 wild type): binds

Binder: B2
percent retained relative to NDR1^WT (GST-Mob1A): > 90%

Binder: B3
percent bound relative to NDR1^WT (GST-Mob1A): < 30%
